What was measured:
Conditions in all cases: protein: recombinant; chain copies: 2; single strand 25 nt
[1] = target: T1, nsP13 helicase (SARS-CoV-2, UniProt P0DTD1 5325-5925); assay: competition, 500 nM ssDNA-F, 30 nM nsP13
[2] = target: T1, nsP13 helicase; assay: competition, 500 nM ssDNA-F, 30 nM nsP13; 3 mM ATP, 5 mM Mg2+; K1/2 of TrapDNA
[3] = target: T1, nsP13 helicase; assay: competition, 500 nM ssDNA-F, 30 nM nsP13; 3 mM ATPgS, 5 mM Mg2+; K1/2 of TrapDNA

In the case of TCTAATGTAGTATAGTAATCCGCTC (ssDNA) [TrapDNA], the IC50 [1] is reported as 460 nM, the IC50 [2] is reported as 950 nM and the IC50 [3] is reported as 3100 nM.

From publication PMC12274814, “ATPase-dependent duplex nucleic acid unwinding by SARS-CoV-2 nsP13 relies on facile binding and translocation along single-stranded nucleic acid”
